Laboratory results reported in US20220363761A1 (MERUS N V, published 2022).
Where two headings read alike, the source gives them in different places.

B1: PD-1xLAG-3 bispecific antibody SEQ ID NO: 1 × SEQ ID NO: 14 (bispecific antibody)
heavy (part 1 of 2) 1: not shown
heavy (part 2 of 2) 1: not shown
heavy (part 1 of 2) 2: EVQLVQSGSELKKPGASVKVSCKASGYTFTTNALNWVRQAPGQGLEWMGWINTHTGNPTYAQGFIGRFVFSLDTSVSTAYLQIRSLKAEDTAVYYCAREPNWGVYFDYWGQGTLVTVSSASTKGPSVFPLAPSSKSTSGGTAALGCLVKDYFPEPVTVSWNSGALTSGVHTFPAVLQSSGLYSLSSVVTVPSSSLGTQTYICNVNHKPSNTKVDKRV
heavy (part 2 of 2) 2: not shown
light: not shown
notes: IgG1; common light chain; also called PB4; not shown: hinge (IgG1)
B2: PD-1xLAG-3 bispecific antibody SEQ ID NO: 6 × SEQ ID NO: 14 (bispecific antibody)
heavy (part 1 of 2) 1: not shown
heavy (part 2 of 2) 1: not shown
heavy (part 1 of 2) 2: B1 heavy (part 1 of 2) 2
heavy (part 2 of 2) 2: not shown
light: not shown
notes: IgG1; common light chain; also called PB10; PD-1xLAG-3 bispecific antibody 2; not shown: hinge (IgG1)
B3: PD-1xLAG-3 bispecific antibody SEQ ID NO: 1 × SEQ ID NO: 11 (bispecific antibody)
heavy (part 1 of 2) 1: not shown
heavy (part 2 of 2) 1: not shown
heavy (part 1 of 2) 2: QVQLQESGPGLVRPSETLSLTCTVSGGSISSYSWSWIRQPPGKGLEWIGYIDYSGSTNYNPSLKSRVTISVDTSKTQFSLKLSSVSAADTAVYYCAKDLLYKWNYVEGFDIWGQGTTVTVSSASTKGPSVFPLAPSSKSTSGGTAALGCLVKDYFPEPVTVSWNSGALTSGVHTFPAVLQSSGLYSLSSVVTVPSSSLGTQTYICNVNHKPSNTKVDKRV
heavy (part 2 of 2) 2: not shown
light: not shown
notes: IgG1; common light chain; also called PB1; not shown: hinge (IgG1)
B4: PD-1xLAG-3 bispecific antibody SEQ ID NO: 5 × SEQ ID NO: 11 (bispecific antibody)
heavy (part 1 of 2) 1: not shown
heavy (part 2 of 2) 1: not shown
heavy (part 1 of 2) 2: B3 heavy (part 1 of 2) 2
heavy (part 2 of 2) 2: not shown
light: not shown
notes: IgG1; common light chain; also called PB13; not shown: hinge (IgG1)

How the values were obtained:
[1] = molecular target: cynomolgus PD-1 (expressed on 293FF cells) (cynomolgus, UniProt B0LAJ3 25-288); assay: FACS on 293FF cells transiently transfected with cynomolgus PD-1
Procedure: (§1) The binding of bispecific antibodies was analyzed by FACS using cell lines stably transfected with human LAG-3 or rhesus LAG-3, or transiently transfected with human PD-1 or cynomolgus PD-1. […] IgG specific binding was measured by FACS using a 8-step, 5-fold dilution starting at 50 ug/ml. A goat-anti-human PE was used as secondary detection antibody. Cells w/o staining or only secondary detection antibody were included as negative assay controls.

[2] = molecular target: T1, human PD-1 (expressed on cells) (human, UniProt Q15116 25-288); assay: cell-based or functional assay
[3] = molecular target: T1, human PD-1 (expressed on cells); assay: cell-based or functional assay; remark: listed apart in the source
[4] = molecular target: T2, human LAG-3 (expressed on 293FF cells) (human, UniProt P18627 23-525); assay: FACS on 293FF cells stably transfected with human LAG-3
T2 construct: whole, on cells; also called CD223
T2 sequence (looked up): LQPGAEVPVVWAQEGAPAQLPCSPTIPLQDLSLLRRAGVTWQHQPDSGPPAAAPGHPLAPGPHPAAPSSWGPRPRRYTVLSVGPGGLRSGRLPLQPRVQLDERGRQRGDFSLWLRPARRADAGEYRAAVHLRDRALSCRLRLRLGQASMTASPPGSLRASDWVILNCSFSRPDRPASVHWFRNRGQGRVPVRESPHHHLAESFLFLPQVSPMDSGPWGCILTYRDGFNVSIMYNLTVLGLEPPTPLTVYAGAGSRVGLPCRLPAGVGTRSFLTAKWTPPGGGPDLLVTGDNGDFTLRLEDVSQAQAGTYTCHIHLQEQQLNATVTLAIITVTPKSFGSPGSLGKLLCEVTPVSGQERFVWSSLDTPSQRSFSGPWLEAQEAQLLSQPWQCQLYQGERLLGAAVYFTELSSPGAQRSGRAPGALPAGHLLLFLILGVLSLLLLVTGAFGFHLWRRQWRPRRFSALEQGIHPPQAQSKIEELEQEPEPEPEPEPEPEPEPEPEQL
Procedure: as §1

[5] = molecular target: T1, human PD-1 (expressed on cells); assay: cell-based or functional assay; remark: listed apart in the source

Sequence of cynomolgus PD-1 (expressed on 293FF cells) (B0LAJ3 entry or part of it limits assumed): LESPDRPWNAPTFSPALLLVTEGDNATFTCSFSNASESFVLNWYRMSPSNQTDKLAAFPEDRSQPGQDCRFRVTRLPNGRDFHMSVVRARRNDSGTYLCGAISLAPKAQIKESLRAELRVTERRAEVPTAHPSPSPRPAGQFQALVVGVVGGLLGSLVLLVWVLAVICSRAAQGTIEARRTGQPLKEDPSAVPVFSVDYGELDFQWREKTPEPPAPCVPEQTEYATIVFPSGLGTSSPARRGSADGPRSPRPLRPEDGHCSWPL
T1 sequence (Q15116 25-288): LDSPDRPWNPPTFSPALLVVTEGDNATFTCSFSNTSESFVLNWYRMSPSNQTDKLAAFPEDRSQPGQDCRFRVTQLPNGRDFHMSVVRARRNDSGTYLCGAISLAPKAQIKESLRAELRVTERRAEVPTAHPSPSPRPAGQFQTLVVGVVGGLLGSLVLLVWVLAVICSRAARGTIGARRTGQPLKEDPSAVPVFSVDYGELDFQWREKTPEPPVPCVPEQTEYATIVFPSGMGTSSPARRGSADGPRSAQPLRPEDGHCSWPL

Row | Binder | binding result [1] | AUC relative to positive control, PD-1/LAG-3 reporter assay [2] [%] | EC50 (nM) PD-1/LAG-3 reporter assay [2] [nM] | EC50 (read off the curve); PD-1/PD-L1 reporter assay, luciferase fold induction [3] [µg/mL] | binding result [4] | EC50 (read off the curve); PD-1/PD-L1 reporter assay, luciferase fold induction [5] [µg/mL]
1 | B1 | binds | 271 | 9.96 | ~1 | binds | 
2 | B2 | binds | 246 | 18 | ~1 | binds | 
3 | B3 | binds | 215 | 19.1 |  | binds | ~0.5
4 | B4 | binds | 218 | 10.1 |  | binds | ~0.7
